The text below walks through data of patent US20120053125A1.

Residue numbers refer to the chain shown, from its start. Names and notes keep the numbering of the source.

Assay [1] has as its target Protein Phosphatase-1 (PP1), purified catalytic subunit (New England BioLabs) (UniProt P62139). Kind of assay: cell-based or functional assay.
Assay [2] concerns the target endogenous type-1 protein phosphatase (PP1) of adult rat cardiomyocyte lysates (rat). Nature of the assay: cell-based or functional assay.

Protein Phosphatase-1 (PP1), purified catalytic subunit (New England BioLabs), sequence (P62139 whole entry): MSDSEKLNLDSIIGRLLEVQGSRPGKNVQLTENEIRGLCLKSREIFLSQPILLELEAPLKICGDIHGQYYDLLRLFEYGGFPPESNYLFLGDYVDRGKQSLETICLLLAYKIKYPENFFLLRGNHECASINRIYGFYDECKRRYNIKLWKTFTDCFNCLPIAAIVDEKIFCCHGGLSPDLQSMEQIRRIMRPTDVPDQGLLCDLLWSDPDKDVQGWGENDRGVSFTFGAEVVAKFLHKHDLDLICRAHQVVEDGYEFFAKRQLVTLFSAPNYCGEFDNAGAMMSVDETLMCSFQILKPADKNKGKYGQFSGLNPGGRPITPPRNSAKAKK

B1: PKA-phosphorylated human I-1 wild type (protein)
chain: MEQDNSPRKIQFTVPLLEPHLDPEAAEQIRRRRPTPATLVLTSDQSSPEIDEDRIPNPHLKSTLAMSPRQRKKMTRITPTMKELQMMVEHHLGQQQQGEEPEGAAESTGTQESRPPGIPDTEVESRLGTSGTAKKTAECIPKTHERGSKEPSTKEPSTHIPPLDSKGANSV
modifications: phosphothreonine at Thr-35 (phosphorylated in vitro by PKA)
B1: the IC50 of inhibition of PP1 activity (dephosphorylation of 32P-MyBP) in assay [1] worked out at 3.2 nM.

B2: human I-1 wild type phosphorylated first by PKC-α and then by PKA (protein)
chain: B1 chain
modifications: phosphothreonine at Thr-35 (PKA); phosphoserine at Ser-67 and phosphothreonine at Thr-75 (PKC-α)
Molecule B2 displayed an IC50 of inhibition of PP1 activity (dephosphorylation of 32P-MyBP) in assay [1] of 4.9 nM.

B3: human I-1 (S67A) phosphorylated by PKC-α (protein)
chain: B1 chain with S67A
modifications: phosphothreonine at Thr-75 (phosphorylated in vitro by PKC-α; 0.35 mol Pi/mol protein)
With B3, the increase of purified PP1c activity compared to I-1 wild-type in assay [1] was determined as 25%.

B4: human I-1 (S67D) (protein)
chain: B1 chain with S67D
With B4, the PP1 activity remaining after PKA stimulation in infected rat cardiomyocytes in assay [2] was determined as 2 fold.

B5: human I-1 (T75D) (protein)
chain: B1 chain with T75D
B5 registered an increase of purified PP1c activity compared to I-1 wild-type in assay [1] of 23%. Moreover, in assay [2], the PP1 activity remaining after PKA stimulation in infected rat cardiomyocytes came to 2 fold; the increase in type-1 phosphatase activity in infected rat cardiomyocyte lysates compared to Ad.I-1WT and Ad.GFP was found to be 27%.

B6: human I-1 (S67D/T75D) (protein)
chain: B1 chain with S67D, T75D
In assay [2], B6 yielded a PP1 activity remaining after PKA stimulation in infected rat cardiomyocytes of 2 fold.
